Experimental data from US20170015742A1 (published 2017).

Experiments:
PDGF-BB = PDGF-BB (UniProt P01127 82-190); test: SPR (Biacore), DVD-Ig captured by anti-human Fc, antigen injected
Procedure: (§1) For example, approximately 9000 RU of goat anti-human Fc specific polyclonal antibody (Thermo Fisher Scientific Inc., Rockford, Ill.) diluted in 10 mM sodium acetate (pH 4.5) is directly immobilized across a CM5 research grade biosensor chip using a standard amine coupling kit according to manufacturer's instructions and procedures at 25 μg/ml. Unreacted moieties on the biosensor surface were blocked with ethanolamine. For kinetic analysis, rate equations derived from the 1:1 Langmuir binding model were fitted simultaneously to multiple antigen injections (using global fit analysis) with the use of Scrubber 2 (BioLogic Software), Biacore Biaevaluation 4.0.1 software or Biacore T100 Evaluation software. Purified antibodies or DVD-Ig molecules were diluted in running buffer for capture across goat anti-human Fc reaction surfaces. Antibodies or DVD-Ig molecules to be captured as a ligand (1 μg/ml) were injected over reaction matrices at a flow rate of 10 μl/minute. During the assay, all measurements were referenced against the capture surface alone (i.e., with no captured antibody or DVD-Ig molecule). […] The equilibrium dissociation constant KD (M) of the reaction between antibodies and the target antigen was then calculated from the kinetic rate constants by the following formula: KD=Koff/Kₒₙ. Binding was recorded as a function of time and kinetic rate constants were calculated.

VEGF-A = VEGF-A (UniProt P15692-4 27-191, limits assumed); test: as above
Procedure: as §1

Human VEGF-A 165 = target: T1, Human VEGF-A 165 (human, UniProt P15692 207-395); test: SPR (Biacore), method of Example 1.1
T1 construct: also called hVEGF165

Human PDGF-BB = target: T2, Human PDGF-BB (human, UniProt P01127 82-190); test: SPR (Biacore), method of Example 1.1
T2 construct: also called hPDGF-BB
T2 sequence (P01127 82-190 limits assumed): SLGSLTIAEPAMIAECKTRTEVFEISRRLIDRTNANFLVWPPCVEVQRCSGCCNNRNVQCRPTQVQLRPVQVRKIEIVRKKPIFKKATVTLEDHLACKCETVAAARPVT

Sequence of PDGF-BB (P01127 82-190): as the sequence (P01127 82-190 limits assumed) above
T1 sequence (P15692 other isoform, or with tags, fused parts or gaps limits assumed): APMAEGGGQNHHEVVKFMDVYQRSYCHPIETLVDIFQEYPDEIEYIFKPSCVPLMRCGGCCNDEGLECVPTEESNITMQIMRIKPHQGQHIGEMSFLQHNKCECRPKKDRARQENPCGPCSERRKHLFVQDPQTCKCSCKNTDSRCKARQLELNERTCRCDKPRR
Sequence of VEGF-A (P15692 other isoform, or with tags, fused parts or gaps limits assumed): as above

Row | Binder | Kd (PDGF-BB) [pM] | kon (PDGF-BB) [M⁻¹ s⁻¹] | Kd (VEGF-A) [pM] | kon (VEGF-A) [M⁻¹ s⁻¹] | Kd (Human VEGF-A 165) [pM] | Kd (Human PDGF-BB) [pM] | kon (Human PDGF-BB) [M⁻¹ s⁻¹] | kon (Human VEGF-A 165) [M⁻¹ s⁻¹]
1 | 9E10.1_GS_CL-33675 (PR-1610561) (bispecific antibody, human IgG1, kappa, L234A L235A, DVD-Ig: outer hBEW-9E10.1 (VEGF), inner CL-33675 (PDGF), linkers GS-H10 / GS-L10(dR); Human IgG1 L234A, L235A, H435A with kappa light chain; also called 9E10.1-GS-33675; hu VEGF 9E10.1-GS-hu PDGF 33675 [hu IgG1/k]; LALA H435A) heavy: EIQLVQSGSELKKPGASVKVSCKASGYTFTNYGMYWVKQAPGQGLEYMGWIDTETGRPTYADDFKGRFVFSLDTSVSTAYLQISSLKAEDTAVYFCARWSGDTTGIRGPWFAYWGQGTLVTVSSGGGGSGGGGSEVTLRESGPALVKPTQTLTLTCTFSGFSLSTYGMGVGWIRQPPGKALEWLANIWWDDDKYYNPSLKNRLTISKDTSKNQVVLTMTNMDPVDTATYYCARIESSGPKYSFDYWGQGTMVTVSSASTKGPSVFPLAPSSKSTSGGTAALGCLVKDYFPEPVTVSWNSGALTSGVHTFPAVLQSSGLYSLSSVVTVPSSSLGTQTYICNVNHKPSNTKVDKKVEPKSCDKTHTCPPCPAPEAAGGPSVFLFPPKPKDTLMISRTPEVTCVVVDVSHEDPEVKFNWYVDGVEVHNAKTKPREEQYNSTYRVVSVLTVLHQDWLNGKEYKCKVSNKALPAPIEKTISKAKGQPREPQVYTLPPSREEMTKNQVSLTCLVKGFYPSDIAVEWESNGQPENNYKTTPPVLDSDGSFFLYSKLTVDKSRWQQGNVFSCSVMHEALHNAYTQKSLSLSPGK light: DIRMTQSPSSLSASVGDRVTIECLASEDIYSDLAWYQQKPGKSPKLLIYNANGLQNGVPSRFSGSGSGTDYSLTISSLQPEDVATYFCQQYNYFPGTFGQGTKLEIKGGSGGGGSGGEIVLTQSPGTLSLSPGERATLSCRASSGSIWYSFVSWYQQKPGQAPRLLIYADDQRASGIPDRFSGSGSGTDFTLTISRLEPEDFAVYYCQSYGINIDVVFGGGTKVEIKRTVAAPSVFIFPPSDEQLKSGTASVVCLLNNFYPREAKVQWKVDNALQSGNSQESVTEQDSKDSTYSLSSTLTLSKADYEKHKVYACEVTHQGLSSPVTKSFNRGEC | 0.45 | 2e+07 | 1.8 | 9.7e+06 |  |  |  | 
2 | 9E10.1_GS_9E8.4 (PR-1612491) (bispecific antibody, human IgG1, kappa, L234A L235A, DVD-Ig: outer hBEW-9E10.1 (VEGF), inner hBDI-9E8.4 (PDGF), linkers GS-H10 / GS-L10(dR); Human IgG1 L234A, L235A, H435A with kappa light chain) heavy: EIQLVQSGSELKKPGASVKVSCKASGYTFTNYGMYWVKQAPGQGLEYMGWIDTETGRPTYADDFKGRFVFSLDTSVSTAYLQISSLKAEDTAVYFCARWSGDTTGIRGPWFAYWGQGTLVTVSSGGGGSGGGGSEVTLRESGPALVKPTQTLTLTCTFSGFSLSTYGMGVGWIRQPPGKALEWLANIWWDDDKYYNPSLKNRLTISKDTSKNQVVLTMTNMDPVDTATYYCARIESIGTTYSFDYWGQGTMVTVSSASTKGPSVFPLAPSSKSTSGGTAALGCLVKDYFPEPVTVSWNSGALTSGVHTFPAVLQSSGLYSLSSVVTVPSSSLGTQTYICNVNHKPSNTKVDKKVEPKSCDKTHTCPPCPAPEAAGGPSVFLFPPKPKDTLMISRTPEVTCVVVDVSHEDPEVKFNWYVDGVEVHNAKTKPREEQYNSTYRVVSVLTVLHQDWLNGKEYKCKVSNKALPAPIEKTISKAKGQPREPQVYTLPPSREEMTKNQVSLTCLVKGFYPSDIAVEWESNGQPENNYKTTPPVLDSDGSFFLYSKLTVDKSRWQQGNVFSCSVMHEALHNAYTQKSLSLSPGK light: DIRMTQSPSSLSASVGDRVTIECLASEDIYSDLAWYQQKPGKSPKLLIYNANGLQNGVPSRFSGSGSGTDYSLTISSLQPEDVATYFCQQYNYFPGTFGQGTKLEIKGGSGGGGSGGEFVLTQSPGTLSLSPGERATLSCERSSGDIGDSYVSWYQQKPGQAPRLVIYADDQRPSGIPDRFSGSGSGTDFTLTISRLEPEDFAVYYCQSYDINIDIVFGGGTKVEIKRTVAAPSVFIFPPSDEQLKSGTASVVCLLNNFYPREAKVQWKVDNALQSGNSQESVTEQDSKDSTYSLSSTLTLSKADYEKHKVYACEVTHQGLSSPVTKSFNRGEC | 25 | 6.8e+06 | 2.2 | 1.1e+07 |  |  |  | 
3 | CODV018 (bispecific antibody, human IgG1, kappa, L234A L235A, Anti-human VEGF-A/anti-human PDGF-BB cross-over DVD-Ig (CO-DVD-Ig); also called PR-1571831) heavy: EFVLTQSPGTLSLSPGERATLSCERSSGDIGDSYVSWYQQKPGQAPRLVIYADDQRPSGIPDRFSGSGSGTDFTLTISRLEPEDFAVYYCQSYDINIDIVFGGGTKVEIKGGGSGGGDTVLTQSPATLSLSPGERATLSCRASESVSTHMHWYQQKPGQAPRLLIYGASNLESGVPARFSGSGSGTDFTLTISSLEPEDFAVYFCQQSWNDPFTFGQGTKLEIKGGGSGASTKGPSVFPLAPSSKSTSGGTAALGCLVKDYFPEPVTVSWNSGALTSGVHTFPAVLQSSGLYSLSSVVTVPSSSLGTQTYICNVNHKPSNTKVDKKVEPKSCDKTHTCPPCPAPEAAGGPSVFLFPPKPKDTLMISRTPEVTCVVVDVSHEDPEVKFNWYVDGVEVHNAKTKPREEQYNSTYRVVSVLTVLHQDWLNGKEYKCKVSNKALPAPIEKTISKAKGQPREPQVYTLPPSREEMTKNQVSLTCLVKGFYPSDIAVEWESNGQPENNYKTTPPVLDSDGSFFLYSKLTVDKSRWQQGNVFSCSVMHEALHNAYTQKSLSLSPGK light: EVQLVQSGSELKKPGASVKVSCKASGYTFTNYGMYWVRQAPGQGLEWMGWINTETGKPTYADDFKGRFVFSLDTSVSTAYLQISSLKAEDTAVYYCARTNYYYRSYIFYFDYWGQGTMVTVSSGEVTLRESGPALVKPTQTLTLTCTFSGFSLSTYGMGVGWIRQPPGKALEWLANIWWDDDKYYNPSLKNRLTISKDTSKNQVVLTMTNMDPVDTATYYCARIESIGTTYSFDYWGQGTMVTVSSGGRTVAAPSVFIFPPSDEQLKSGTASVVCLLNNFYPREAKVQWKVDNALQSGNSQESVTEQDSKDSTYSLSSTLTLSKADYEKHKVYACEVTHQGLSSPVTKSFNRGEC |  |  |  |  | 31000 | 5.3 | 3.5e+07 | 

Next, values leading:

Row | Kd (PDGF-BB) [pM] | kon (PDGF-BB) [M⁻¹ s⁻¹] | Kd (VEGF-A) [pM] | kon (VEGF-A) [M⁻¹ s⁻¹] | Kd (Human VEGF-A 165) [pM] | Kd (Human PDGF-BB) [pM] | kon (Human PDGF-BB) [M⁻¹ s⁻¹] | kon (Human VEGF-A 165) [M⁻¹ s⁻¹] | Binder
4 |  |  |  |  | 50 | 4.4 | 3.9e+07 | 2.9e+06 | CODV019 (bispecific antibody, human IgG1, kappa, L234A L235A, Anti-human VEGF-A/anti-human PDGF-BB cross-over DVD-Ig (CO-DVD-Ig); also called PR-1571832) heavy: DTVLTQSPATLSLSPGERATLSCRASESVSTHMHWYQQKPGQAPRLLIYGASNLESGVPARFSGSGSGTDFTLTISSLEPEDFAVYFCQQSWNDPFTFGQGTKLEIKGGGSGGGGEVTLRESGPALVKPTQTLTLTCTFSGFSLSTYGMGVGWIRQPPGKALEWLANIWWDDDKYYNPSLKNRLTISKDTSKNQVVLTMTNMDPVDTATYYCARIESIGTTYSFDYWGQGTMVTVSSLGGCGGGSASTKGPSVFPLAPSSKSTSGGTAALGCLVKDYFPEPVTVSWNSGALTSGVHTFPAVLQSSGLYSLSSVVTVPSSSLGTQTYICNVNHKPSNTKVDKKVEPKSCDKTHTCPPCPAPEAAGGPSVFLFPPKPKDTLMISRTPEVTCVVVDVSHEDPEVKFNWYVDGVEVHNAKTKPREEQYNSTYRVVSVLTVLHQDWLNGKEYKCKVSNKALPAPIEKTISKAKGQPREPQVYTLPPSREEMTKNQVSLTCLVKGFYPSDIAVEWESNGQPENNYKTTPPVLDSDGSFFLYSKLTVDKSRWQQGNVFSCSVMHEALHNAYTQKSLSLSPGK light: EFVLTQSPGTLSLSPGERATLSCERSSGDIGDSYVSWYQQKPGQAPRLVIYADDQRPSGIPDRFSGSGSGTDFTLTISRLEPEDFAVYYCQSYDINIDIVFGGGTKVEIKGGGSGGGGEVQLVQSGSELKKPGASVKVSCKASGYTFTNYGMYWVRQAPGQGLEWMGWINTETGKPTYADDFKGRFVFSLDTSVSTAYLQISSLKAEDTAVYYCARTNYYYRSYIFYFDYWGQGTMVTVSSLGGCGGGSRTVAAPSVFIFPPSDEQLKSGTASVVCLLNNFYPREAKVQWKVDNALQSGNSQESVTEQDSKDSTYSLSSTLTLSKADYEKHKVYACEVTHQGLSSPVTKSFNRGEC
5 |  |  |  |  | 33 | 3.5 | 4.6e+07 | 3.1e+06 | CODV020 (bispecific antibody, human IgG1, kappa, L234A L235A, Anti-human VEGF-A/anti-human PDGF-BB cross-over DVD-Ig (CO-DVD-Ig); also called PR-1571836) heavy: EFVLTQSPGTLSLSPGERATLSCERSSGDIGDSYVSWYQQKPGQAPRLVIYADDQRPSGIPDRFSGSGSGTDFTLTISRLEPEDFAVYYCQSYDINIDIVFGGGTKVEIKGGGSGGGGEVQLVQSGSELKKPGASVKVSCKASGYTFTNYGMYWVRQAPGQGLEWMGWINTETGKPTYADDFKGRFVFSLDTSVSTAYLQISSLKAEDTAVYYCARTNYYYRSYIFYFDYWGQGTMVTVSSLGGCGGGSASTKGPSVFPLAPSSKSTSGGTAALGCLVKDYFPEPVTVSWNSGALTSGVHTFPAVLQSSGLYSLSSVVTVPSSSLGTQTYICNVNHKPSNTKVDKKVEPKSCDKTHTCPPCPAPEAAGGPSVFLFPPKPKDTLMISRTPEVTCVVVDVSHEDPEVKFNWYVDGVEVHNAKTKPREEQYNSTYRVVSVLTVLHQDWLNGKEYKCKVSNKALPAPIEKTISKAKGQPREPQVYTLPPSREEMTKNQVSLTCLVKGFYPSDIAVEWESNGQPENNYKTTPPVLDSDGSFFLYSKLTVDKSRWQQGNVFSCSVMHEALHNAYTQKSLSLSPGK light: DTVLTQSPATLSLSPGERATLSCRASESVSTHMHWYQQKPGQAPRLLIYGASNLESGVPARFSGSGSGTDFTLTISSLEPEDFAVYFCQQSWNDPFTFGQGTKLEIKGGGSGGGGEVTLRESGPALVKPTQTLTLTCTFSGFSLSTYGMGVGWIRQPPGKALEWLANIWWDDDKYYNPSLKNRLTISKDTSKNQVVLTMTNMDPVDTATYYCARIESIGTTYSFDYWGQGTMVTVSSLGGCGGGSRTVAAPSVFIFPPSDEQLKSGTASVVCLLNNFYPREAKVQWKVDNALQSGNSQESVTEQDSKDSTYSLSSTLTLSKADYEKHKVYACEVTHQGLSSPVTKSFNRGEC
